The values below come from paper doi:10.1101/2020.11.26.400622 (bioRxiv, 2020).

Data set [1] concerns the molecule itself. In words: negative staining electron microscopy.
Data set [2] concerns the molecule itself. The experiment in a line: dynamic light scattering.
Data set [3] deals with the molecule itself. In words: dynamic light scattering. This is another data set of the same source.
The data set “crystal structure” concerns the molecule itself. The experiment in a line: crystal structure.

B1: circularly permuted human Taspase1 cp-Taspase1_(α41-233/β) (enzyme)
chain: TVGAVVVDHEGNVAAAVSSGGLALKHPGRVGQAALYGCGCWAENTGAHNPYSTAVSTSGCGEHLVRTILARECSHALQAEDAHQALLETMQNKFISSPFLASEDGVLGGVIVLRSCRCSAEPDSSQNKQTLLVEFLWSHTTESMCVGYMSAQDGKAKTHISRLPPGAVAGQSVAIEGGVCRLEGSGSGGFVLVHAGAGYHSESKAKEYKHVCKRACQKAIEKLQAGALATDAVTAALVELEDSPFTNAGMGSNLNLLGEIECDASIMDGKSLNFGAVGALSGIKNPVSVANRLLCEGQKGKLSAGRIPPCFLVGEGAYRWAVDHGIPSCPPNIMTTRFSLAAFKRNKRKLELAERVDTDFMQLKKRRQSSEKENDSGTLD
Regarding B1, the “stoichiometry N” value in data set [1] was 2; in “dynamic light scattering [2]”, 6; in the data set “dynamic light scattering [3]” it was 4.

B2: circularly permuted human Taspase1 cp-Taspase1_(α41-183/β) (enzyme)
chain: TVGAVVVDHEGNVAAAVSSGGLALKHPGRVGQAALYGCGCWAENTGAHNPYSTAVSTSGCGEHLVRTILARECSHALQAEDAHQALLETMQNKFISSPFLASEDGVLGGVIVLRSCRCSAEPDSSQNKQTLLVEFLWSHTTESMCVGYMSAQDGKAKTHISRLPPGAVAGQSVAIEGGVCRLEGSGSGGFVLVHAGAGYHSESKAKEYKHVCKRACQKAIEKLQAGALATDAVTAALVELEDSPFTNAGMGSNLNLLGEIECDASIMDGKSLNFGAVGALSGIKNPVSVANRLLCEGQKGKLSAGRIPPCFLVGEGAYRWAVDHGIPSCP
Consider B2, for which, in the data set “crystal structure”, the binding result was “binds”.
